Assay results as given in paper PMC5501727, “The Structure of the R2TP Complex Defines a Platform for Recruiting Diverse Client Proteins to the HSP90 Molecular Chaperone System” (Structure(London, England:1993), 2017).
Blank lines part the entries; values can stand above or below the binder they belong to.

Legend:
Tah1p-Pih1p complex = target: T1, Tah1p-Pih1p complex (yeast, UniProt P25638 1-111; P38768 1-344); experiment: AUC; sedimentation velocity, 43,000 rpm, samples 2 to 4 μM in 20 mM HEPES pH 7.8, 140 mM NaCl, 5 mM MgCl2, 0.5 mM EDTA, 0.5 mM TCEP; TP alone, R2 alone, and R2 mixed with TP at 1:2.4 molar ratio; details: both partners purified
T1 construct: Tah1p, TPR domain protein of yeast R2TP; gene cloned into a modified pET28b (NdeI/BamHI) giving 2xStrep-tagged Tah1p; Pih1p of yeast R2TP; PIH1P gene cloned into p3E (modified pGEX6p) with NdeI and HindIII; Heterodimer of 53 kDa by sedimentation velocity; also called TP; 2xStrep-Tah1p-Pih1p
T1 sequence (looked up) 1: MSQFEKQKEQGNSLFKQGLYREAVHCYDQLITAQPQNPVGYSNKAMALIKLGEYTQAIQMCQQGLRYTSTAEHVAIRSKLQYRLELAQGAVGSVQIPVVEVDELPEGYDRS
T1 sequence (looked up) 2: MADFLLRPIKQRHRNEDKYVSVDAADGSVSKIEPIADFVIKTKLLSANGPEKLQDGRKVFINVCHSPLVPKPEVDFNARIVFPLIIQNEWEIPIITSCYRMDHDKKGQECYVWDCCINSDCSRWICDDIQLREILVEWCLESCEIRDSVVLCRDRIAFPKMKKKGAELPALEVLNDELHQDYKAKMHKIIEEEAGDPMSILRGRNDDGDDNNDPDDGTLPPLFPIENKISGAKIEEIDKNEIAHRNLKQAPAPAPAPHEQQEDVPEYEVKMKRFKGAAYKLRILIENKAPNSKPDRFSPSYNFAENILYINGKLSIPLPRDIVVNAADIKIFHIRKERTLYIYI

Rvb2p = target: T2, Rvb2p (Saccharomyces cerevisiae, UniProt Q12464 1-471); experiment: as above; details: both partners purified
T2 construct: gene (Genscript) cloned into a modified pRSETA (containing 3X Myc-tags) with NheI and HindIII; also called Rvb2p-only complex; source: Rosetta (DE3) pLysS, co-expressed with Rvb1p, purified (Talon, gel filtration)

- stoichiometry N (Tah1p-Pih1p complex): 1 Rvb1p-Rvb2p hetero-hexamer per Tah1p-Pih1p complex
B1: Rvb1p-Rvb2p complex (hetero-hexamer) (complex, Saccharomyces cerevisiae)
chain 1: MVAISEVKENPGVNSSNSGAVTRTAAHTHIKGLGLDESGVAKRVEGGFVGQIEAREACGVIVDLIKAKKMSGRAILLAGGPSTGKTALALAISQELGPKVPFCPLVGSELYSVEVKKTETLMENFRRAIGLRIKETKEVYEGEVTELTPEDAENPLGGYGKTISHVIVGLKSAKGTKTLRLDPTIYESIQREKVSIGDVIYIEANTGAVKRVGRSDAYATEFDLETEEYVPLPKGEVHKKKEIVQDVTLHDLDVANARPQGGQDVISMMGQLLKPKKTEITEKLRQEVNKVVAKYIDQGVAELIPGVLFIDEVNMLDIEIFTYLNKALESNIAPVVVLASNRGMTTVRGTEDVISPHGVPPDLIDRLLIVRTLPYDKDEIRTIIERRATVERLQVESSALDLLATMGTETSLRYALQLLAPCGILAQTSNRKEIVVNDVNEAKLLFLDAKRSTKILETSANYL
chain 2: MSIQTSDPNETSDLKSLSLIAAHSHITGLGLDENLQPRPTSEGMVGQLQARRAAGVILKMVQNGTIAGRAVLVAGPPSTGKTALAMGVSQSLGKDVPFTAIAGSEIFSLELSKTEALTQAFRKSIGIKIKEETELIEGEVVEIQIDRSITGGHKQGKLTIKTTDMETIYELGNKMIDGLTKEKVLAGDVISIDKASGKITKLGRSFARSRDYDAMGADTRFVQCPEGELQKRKTVVHTVSLHEIDVINSRTQGFLALFTGDTGEIRSEVRDQINTKVAEWKEEGKAEIVPGVLFIDEVHMLDIECFSFINRALEDEFAPIVMMATNRGVSKTRGTNYKSPHGLPLDLLDRSIIITTKSYNEQEIKTILSIRAQEEEVELSSDALDLLTKTGVETSLRYSSNLISVAQQIAMKRKNNTVEVEDVKRAYLLFLDSARSVKYVQENESQYIDDQGNVQISIAKSADPDAMDTTE
notes: Rvb1p, AAA+ ATPase of yeast R2TP; gene (Genscript) cloned into pET28b with NdeI and BamHI; gene (Genscript) cloned into a modified pRSETA (containing 3X Myc-tags) with NheI and HindIII; also called R2; Rvb1p-Rvb2p hexamer; copies: 3 + 3

- stoichiometry N (Rvb2p): 1 Rvb1p per Rvb2p (3:3)
B2: Rvb1p (natural protein, Saccharomyces cerevisiae, UniProt Q03940 1-463, looked up)
chain: B1 chain 1
notes: Rvb1p, AAA+ ATPase of yeast R2TP; gene (Genscript) cloned into pET28b with NdeI and BamHI; also called Rvb1p-only complex
